According to publication PMC2213499 (The Journal of Experimental Medicine, 2000):

Molecular target: Complement C1q (human, UniProt P02745 23-245; P02746 28-253; P02747 29-245)
Assay: ELISA

Complement C1q, sequence (P02745 23-245, chain 1 of 3): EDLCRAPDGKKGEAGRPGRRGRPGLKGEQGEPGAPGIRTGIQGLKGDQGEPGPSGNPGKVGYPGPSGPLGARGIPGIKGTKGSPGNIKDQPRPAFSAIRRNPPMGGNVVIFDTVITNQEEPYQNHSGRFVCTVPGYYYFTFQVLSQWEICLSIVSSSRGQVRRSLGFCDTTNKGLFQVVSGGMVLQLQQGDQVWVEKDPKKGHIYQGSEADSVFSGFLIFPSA
Complement C1q, sequence (P02746 28-253, chain 2 of 3): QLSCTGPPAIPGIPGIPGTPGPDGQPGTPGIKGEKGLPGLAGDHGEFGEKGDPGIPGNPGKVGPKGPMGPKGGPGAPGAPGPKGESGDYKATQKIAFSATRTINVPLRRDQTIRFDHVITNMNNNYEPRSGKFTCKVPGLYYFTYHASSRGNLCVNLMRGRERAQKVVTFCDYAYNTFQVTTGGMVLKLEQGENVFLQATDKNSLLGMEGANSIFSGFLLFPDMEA
Complement C1q, sequence (P02747 29-245, chain 3 of 3): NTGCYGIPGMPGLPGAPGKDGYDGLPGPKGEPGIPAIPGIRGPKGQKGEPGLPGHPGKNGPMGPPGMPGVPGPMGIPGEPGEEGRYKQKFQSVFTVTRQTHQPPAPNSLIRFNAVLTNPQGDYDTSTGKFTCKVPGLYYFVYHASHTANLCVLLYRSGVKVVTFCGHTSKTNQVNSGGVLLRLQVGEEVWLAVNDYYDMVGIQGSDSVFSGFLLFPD

B1: Recombinant soluble complement receptor 1 (sCR1) (domain or fragment)
chain: not shown
modifications: 125I in the radioligand assays with immobilised MBL; unlabelled elsewhere
- binding result: binds
